Key:
[1] = biological target: DH5 anti-DLL3 trispecific protein; assay: Octet BLI, DLL3-Fc on anti-human Fc tips, single 50 nM
Method: (§1) Using conditioned media containing known concentrations of anti-DLL3 trispecific proteins, the binding affinities of the anti-DLL3 trispecific proteins toward human and cynomolgus monkey DLL3 proteins were measured, using a method where the DLL3 proteins were expressed as human IgG1-Fc fusions and the measurements were carried out using an Octet instrument with anti-human Fc tips.

[2] = biological target: DH56 anti-DLL3 trispecific protein; assay: as above
Method: as §1

[3] = biological target: DH11 anti-DLL3 trispecific protein; assay: as above
Method: as §1

[4] = biological target: DH3 anti-DLL3 trispecific protein; assay: as above
Chain of DH3 anti-DLL3 trispecific protein (chain, as listed by the source): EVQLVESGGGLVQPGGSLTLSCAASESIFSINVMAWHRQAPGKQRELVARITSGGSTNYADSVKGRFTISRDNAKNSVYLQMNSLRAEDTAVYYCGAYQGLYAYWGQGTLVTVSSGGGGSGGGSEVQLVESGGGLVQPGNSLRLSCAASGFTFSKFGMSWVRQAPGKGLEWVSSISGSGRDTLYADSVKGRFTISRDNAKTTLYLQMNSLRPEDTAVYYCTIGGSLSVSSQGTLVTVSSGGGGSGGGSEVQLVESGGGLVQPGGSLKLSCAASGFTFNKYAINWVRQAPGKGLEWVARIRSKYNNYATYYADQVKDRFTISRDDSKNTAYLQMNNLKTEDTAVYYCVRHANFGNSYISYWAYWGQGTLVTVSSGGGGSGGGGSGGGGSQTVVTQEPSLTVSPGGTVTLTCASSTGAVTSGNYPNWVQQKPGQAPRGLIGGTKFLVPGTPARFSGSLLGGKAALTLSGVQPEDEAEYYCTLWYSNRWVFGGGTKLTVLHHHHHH
Method: as §1

[5] = biological target: DH82 anti-DLL3 trispecific protein; assay: as above
Method: as §1

[6] = biological target: DH29 anti-DLL3 trispecific protein; assay: as above
Method: as §1

[7] = biological target: DH92 anti-DLL3 trispecific protein; assay: as above
Chain of DH92 anti-DLL3 trispecific protein (chain, as listed by the source): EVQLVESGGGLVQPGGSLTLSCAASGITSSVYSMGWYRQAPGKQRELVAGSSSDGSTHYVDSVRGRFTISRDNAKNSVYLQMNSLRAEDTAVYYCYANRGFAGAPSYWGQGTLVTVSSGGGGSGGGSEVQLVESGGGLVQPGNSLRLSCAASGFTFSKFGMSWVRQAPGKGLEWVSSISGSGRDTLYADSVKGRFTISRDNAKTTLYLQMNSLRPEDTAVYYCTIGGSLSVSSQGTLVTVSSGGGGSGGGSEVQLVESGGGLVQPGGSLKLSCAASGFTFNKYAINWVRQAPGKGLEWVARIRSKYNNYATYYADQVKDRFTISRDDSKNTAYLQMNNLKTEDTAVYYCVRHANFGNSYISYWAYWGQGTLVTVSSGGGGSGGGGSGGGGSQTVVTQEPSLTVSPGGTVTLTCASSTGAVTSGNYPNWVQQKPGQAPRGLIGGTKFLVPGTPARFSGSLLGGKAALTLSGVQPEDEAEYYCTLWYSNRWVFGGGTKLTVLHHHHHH
Method: as §1

[8] = biological target: DH45 anti-DLL3 trispecific protein; assay: as above
Method: as §1

[9] = biological target: DH15 anti-DLL3 trispecific protein; assay: as above
Chain of DH15 anti-DLL3 trispecific protein (chain, as listed by the source): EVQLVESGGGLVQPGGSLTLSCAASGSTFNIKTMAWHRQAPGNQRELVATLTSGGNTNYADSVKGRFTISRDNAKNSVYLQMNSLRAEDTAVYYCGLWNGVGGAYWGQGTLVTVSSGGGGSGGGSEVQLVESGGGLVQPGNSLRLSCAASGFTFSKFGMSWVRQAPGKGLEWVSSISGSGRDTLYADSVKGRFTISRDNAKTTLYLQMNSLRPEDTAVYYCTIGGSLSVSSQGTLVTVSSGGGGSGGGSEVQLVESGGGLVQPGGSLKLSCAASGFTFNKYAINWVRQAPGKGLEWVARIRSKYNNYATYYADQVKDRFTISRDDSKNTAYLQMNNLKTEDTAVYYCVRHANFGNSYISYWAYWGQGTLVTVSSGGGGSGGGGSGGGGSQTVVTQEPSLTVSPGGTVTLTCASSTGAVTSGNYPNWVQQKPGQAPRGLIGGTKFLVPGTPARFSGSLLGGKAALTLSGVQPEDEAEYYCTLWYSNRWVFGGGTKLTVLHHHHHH
Method: as §1

[10] = biological target: DH1 anti-DLL3 trispecific protein; assay: as above
Method: as §1

[11] = biological target: DH84 anti-DLL3 trispecific protein; assay: as above
Chain of DH84 anti-DLL3 trispecific protein (chain, as listed by the source): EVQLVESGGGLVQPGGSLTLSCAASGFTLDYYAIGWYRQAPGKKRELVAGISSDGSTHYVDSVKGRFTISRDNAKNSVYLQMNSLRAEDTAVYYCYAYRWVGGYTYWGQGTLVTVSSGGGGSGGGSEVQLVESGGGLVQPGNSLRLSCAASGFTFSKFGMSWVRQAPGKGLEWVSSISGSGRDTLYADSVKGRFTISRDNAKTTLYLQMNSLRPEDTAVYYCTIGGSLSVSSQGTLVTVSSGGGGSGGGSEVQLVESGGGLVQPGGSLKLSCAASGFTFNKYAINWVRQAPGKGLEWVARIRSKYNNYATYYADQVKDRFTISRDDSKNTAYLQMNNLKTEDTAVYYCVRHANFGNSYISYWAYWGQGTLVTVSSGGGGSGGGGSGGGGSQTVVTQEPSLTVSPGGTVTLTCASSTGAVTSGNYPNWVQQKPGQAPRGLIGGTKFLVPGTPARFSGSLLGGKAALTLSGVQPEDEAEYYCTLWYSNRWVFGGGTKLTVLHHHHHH
Method: as §1

[12] = biological target: DH54 anti-DLL3 trispecific protein; assay: as above
Chain of DH54 anti-DLL3 trispecific protein (chain, as listed by the source): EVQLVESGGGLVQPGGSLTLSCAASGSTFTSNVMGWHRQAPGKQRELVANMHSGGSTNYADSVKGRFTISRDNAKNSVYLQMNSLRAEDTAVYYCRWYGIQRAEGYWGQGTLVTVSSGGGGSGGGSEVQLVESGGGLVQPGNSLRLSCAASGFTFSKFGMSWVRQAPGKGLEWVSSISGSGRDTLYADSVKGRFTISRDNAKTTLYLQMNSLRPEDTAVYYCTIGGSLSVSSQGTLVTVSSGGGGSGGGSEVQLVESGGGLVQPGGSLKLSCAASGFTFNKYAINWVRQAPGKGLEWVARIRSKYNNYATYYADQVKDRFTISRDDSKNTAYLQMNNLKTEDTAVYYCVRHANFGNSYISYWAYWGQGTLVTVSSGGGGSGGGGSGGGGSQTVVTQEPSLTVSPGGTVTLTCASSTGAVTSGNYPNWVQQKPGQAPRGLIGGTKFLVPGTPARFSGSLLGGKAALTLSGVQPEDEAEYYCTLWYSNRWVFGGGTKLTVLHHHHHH
Method: as §1

[13] = biological target: DH51 anti-DLL3 trispecific protein; assay: as above
Method: as §1

[14] = biological target: DH61 anti-DLL3 trispecific protein; assay: as above
Method: as §1

[15] = biological target: DH58 anti-DLL3 trispecific protein; assay: as above
Method: as §1

[16] = biological target: DH69 anti-DLL3 trispecific protein; assay: as above
Method: as §1

[17] = biological target: DH6 anti-DLL3 trispecific protein; assay: as above
Chain of DH6 anti-DLL3 trispecific protein (chain, as listed by the source): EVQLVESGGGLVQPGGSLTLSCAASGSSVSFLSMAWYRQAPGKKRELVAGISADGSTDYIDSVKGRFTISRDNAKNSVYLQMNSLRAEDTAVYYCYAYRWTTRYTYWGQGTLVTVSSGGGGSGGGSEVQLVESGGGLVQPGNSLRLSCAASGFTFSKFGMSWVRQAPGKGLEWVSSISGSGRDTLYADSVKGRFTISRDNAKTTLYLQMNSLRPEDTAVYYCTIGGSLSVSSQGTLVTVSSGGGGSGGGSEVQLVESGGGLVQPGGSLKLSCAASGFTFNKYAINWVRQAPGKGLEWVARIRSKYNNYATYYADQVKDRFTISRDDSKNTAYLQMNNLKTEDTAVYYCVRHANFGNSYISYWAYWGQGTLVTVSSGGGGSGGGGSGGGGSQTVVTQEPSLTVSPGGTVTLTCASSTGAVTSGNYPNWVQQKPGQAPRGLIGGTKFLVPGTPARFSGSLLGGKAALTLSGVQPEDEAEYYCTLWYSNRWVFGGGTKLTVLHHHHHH
Method: as §1

[18] = biological target: DH70 anti-DLL3 trispecific protein; assay: as above
Method: as §1

[19] = biological target: DH43 anti-DLL3 trispecific protein; assay: as above
Chain of DH43 anti-DLL3 trispecific protein (chain, as listed by the source): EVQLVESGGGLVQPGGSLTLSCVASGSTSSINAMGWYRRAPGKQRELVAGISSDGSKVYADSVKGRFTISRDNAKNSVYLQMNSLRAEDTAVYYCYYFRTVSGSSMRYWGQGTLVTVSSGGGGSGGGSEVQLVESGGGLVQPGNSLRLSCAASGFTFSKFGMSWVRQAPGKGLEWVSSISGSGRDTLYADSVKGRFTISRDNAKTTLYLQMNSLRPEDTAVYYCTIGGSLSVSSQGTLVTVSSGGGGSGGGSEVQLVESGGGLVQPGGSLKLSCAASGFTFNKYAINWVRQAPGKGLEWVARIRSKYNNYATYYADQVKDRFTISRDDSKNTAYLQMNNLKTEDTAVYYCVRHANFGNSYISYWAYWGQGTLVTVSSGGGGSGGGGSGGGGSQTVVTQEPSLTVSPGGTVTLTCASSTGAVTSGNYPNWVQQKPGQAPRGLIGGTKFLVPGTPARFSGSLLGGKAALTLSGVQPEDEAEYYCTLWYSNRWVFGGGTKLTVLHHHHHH
Method: as §1

[20] = biological target: DH27 anti-DLL3 trispecific protein; assay: as above
Method: as §1

[21] = biological target: DH22 anti-DLL3 trispecific protein; assay: as above
Method: as §1

[22] = biological target: DH94 anti-DLL3 trispecific protein; assay: as above
Method: as §1

[23] = biological target: DH89 anti-DLL3 trispecific protein; assay: as above
Method: as §1

[24] = biological target: DH23 anti-DLL3 trispecific protein; assay: as above
Method: as §1

[25] = biological target: DH80 anti-DLL3 trispecific protein; assay: as above
Method: as §1

[26] = biological target: DH83 anti-DLL3 trispecific protein; assay: as above
Method: as §1

[27] = biological target: DH17 anti-DLL3 trispecific protein; assay: as above
Chain of DH17 anti-DLL3 trispecific protein (chain, as listed by the source): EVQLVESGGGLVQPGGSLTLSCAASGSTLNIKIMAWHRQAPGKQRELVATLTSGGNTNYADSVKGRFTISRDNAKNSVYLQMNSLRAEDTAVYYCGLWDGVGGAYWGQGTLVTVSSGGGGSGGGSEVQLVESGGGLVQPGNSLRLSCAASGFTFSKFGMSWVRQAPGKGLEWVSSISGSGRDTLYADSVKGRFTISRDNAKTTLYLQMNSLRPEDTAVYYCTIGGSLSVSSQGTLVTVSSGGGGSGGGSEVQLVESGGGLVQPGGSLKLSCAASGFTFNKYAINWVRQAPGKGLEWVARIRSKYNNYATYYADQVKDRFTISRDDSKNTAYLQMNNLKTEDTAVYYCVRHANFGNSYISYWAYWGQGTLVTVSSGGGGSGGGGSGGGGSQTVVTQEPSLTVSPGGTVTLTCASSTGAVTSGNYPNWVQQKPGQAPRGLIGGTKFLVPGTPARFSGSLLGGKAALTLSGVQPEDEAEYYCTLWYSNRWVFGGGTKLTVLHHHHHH
Method: as §1

[28] = biological target: DH42 anti-DLL3 trispecific protein; assay: as above
Method: as §1

[29] = biological target: DH67 anti-DLL3 trispecific protein; assay: as above
Method: as §1

[30] = biological target: DH38 anti-DLL3 trispecific protein; assay: as above
Method: as §1

[31] = biological target: DH18 anti-DLL3 trispecific protein; assay: as above
Chain of DH18 anti-DLL3 trispecific protein (chain, as listed by the source): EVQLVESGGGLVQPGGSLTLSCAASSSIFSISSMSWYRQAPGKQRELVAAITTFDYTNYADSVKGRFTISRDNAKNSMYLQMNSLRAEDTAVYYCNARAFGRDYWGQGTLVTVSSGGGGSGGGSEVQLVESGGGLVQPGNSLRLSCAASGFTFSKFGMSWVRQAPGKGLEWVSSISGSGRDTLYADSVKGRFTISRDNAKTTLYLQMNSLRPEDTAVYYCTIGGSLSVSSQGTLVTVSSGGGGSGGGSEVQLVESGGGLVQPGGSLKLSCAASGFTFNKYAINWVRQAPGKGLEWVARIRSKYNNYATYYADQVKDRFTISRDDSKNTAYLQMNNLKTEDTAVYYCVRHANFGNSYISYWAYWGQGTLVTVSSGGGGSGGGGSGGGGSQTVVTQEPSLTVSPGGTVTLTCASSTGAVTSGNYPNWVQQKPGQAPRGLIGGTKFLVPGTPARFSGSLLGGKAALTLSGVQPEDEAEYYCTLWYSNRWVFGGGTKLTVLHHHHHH
Method: as §1

[32] = biological target: DH10 anti-DLL3 trispecific protein; assay: as above
Method: as §1

[33] = biological target: DH12 anti-DLL3 trispecific protein; assay: as above
Method: as §1

[34] = biological target: DH2 anti-DLL3 trispecific protein; assay: as above
Method: as §1

[35] = biological target: DH3 anti-DLL3 trispecific protein; assay: Octet BLI, single 50 nM
Method: as §1

[36] = biological target: T1, 52C4 anti-DLL3 trispecific protein (CHO expressed, purified) (biotinylated); assay: Octet BLI, biotinylated trispecific on streptavidin tips
T1 construct: also called 52C04

[37] = biological target: DH6 anti-DLL3 trispecific protein; assay: Octet BLI, 60/20/6.67/2.22 nM
Method: (§2) Using the conditioned medium with known concentrations of the anti-DLL3 trispecific proteins, the binding affinities of the anti-DLL3 trispecific proteins toward human DLL3 protein were measured using a method where biotinylated version of human DLL3 protein were expressed as a human IgG1 fusion protein, and the binding affinity measurement was carried out in an Octet instrument with streptavidin tips.

[38] = biological target: DH43 anti-DLL3 trispecific protein; assay: Octet BLI, 60/20/6.67/2.22 nM
Method: as §2

[39] = biological target: DH6 anti-DLL3 trispecific protein; assay: Octet BLI, single 50 nM, four samples of conditioned medium
Method: as §2

[40] = biological target: DH43 anti-DLL3 trispecific protein; assay: as above
Method: as §2

[41] = biological target: 41D07 anti-DLL3 trispecific protein; assay: Octet BLI, streptavidin tips, single 50 nM
Method: as §2, with “proteins, the relative binding affinities” for “proteins, the binding affinities”

[42] = biological target: 53A05 anti-DLL3 trispecific protein; assay: Octet BLI, streptavidin tips, single 50 nM
Method: as §2, with “proteins, the relative binding affinities” for “proteins, the binding affinities”

Kd [1] [nM]	Kd [2] [nM]	Kd [3] [nM]	Kd [7] [nM]	Kd [8] [nM]	Kd [10] [nM]	Kd [11] [nM]	Kd [12] [nM]	Kd [13] [nM]	Kd [14] [nM]	Kd [15] [nM]	Kd [16] [nM]	Kd [17] [nM]	Kd [18] [nM]	Kd [19] [nM]	Kd [20] [nM]	Kd [21] [nM]	Kd [22] [nM]	Kd [25] [nM]	Kd [28] [nM]	Binder	further results
5.5	8	5.6	17.5	2.8	10.7	17.9	42.4	18.2	30.8	27.9	7	6.8	86.2	5.5	11.3	16.4	9.6	5.5	11.7	cynomolgus monkey DLL3 protein expressed as human IgG1-Fc fusion (Fc fusion, Macaca fascicularis, also called cyDLL3; not shown: human IgG1 Fc) AGVFELQIHSFGPGPGGAPRSPYSARGPCRLFFRVCLKPGLSEEAAESPCALGAALSARGPVYTEQPEAPAPDLPLPNGLLQVPFRDAWPGTFSLIIETWREELGDQIGGPAWSLLARVTRRRRLAAGGPWAGDIQRAGAWELRFSYRARCELPAVGTACTRLCRPRSASRCGPGLRPCAPLEDECEAPPVCRAGCSLEHGFCEQPGECRCLEGWTGPLCMVPVSTSSCLGLRGPSSTTTGCLVPGPGPCDGNPCANGGSCSETPGSFECTCPRGFYGLRCEVSGVTCADGPCFNGGLCVGGADPDSAYICHCPPGFQGSNCEKRVDRCSLQPCRNGGLCLDLGHALRCRCRAGFAGPRCEHDLNDCAGRACANGGTCVEGGGAHRCSCALGFGGRDCRERADPCAARPCAHGGRCYAHFSGLVCACAPGYMGARCEFPVHPDGVSALPAAPPGLRPGDPQRYP	binding result [4]: no binding (tested: 50 nM); binding result [5]: no binding (tested: 50 nM); binding result [6]: no binding (tested: 50 nM); binding result [9]: no binding (tested: 50 nM); binding result [23]: no binding (tested: 50 nM); binding result [24]: no binding (tested: 50 nM); binding result [26]: no binding (tested: 50 nM); binding result [27]: no binding (tested: 50 nM); Kd [29]: 8.2 nM; binding result [30]: no binding (tested: 50 nM); Kd [31]: 5.9 nM; Kd [32]: 25 nM; binding result [33]: no binding (tested: 50 nM); Kd [34]: 14.6 nM
0.5	8.1	5.3	18	1.9	3.5	15.2	20.6	5.1	10.6	3.3	1.2	6.1	16.2	4.3	2.1	6.8	2.6	0.8	4.3	human DLL3 protein expressed as human IgG1-Fc fusion (Fc fusion, also called huDLL3; not shown: human IgG1 Fc) AGVFELQIHSFGPGPGPGAPRSPCSARLPCRLFFRVCLKPGLSEEAAESPCALGAALSARGPVYTEQPGAPAPDLPLPDGLLQVPFRDAWPGTFSFIIETWREELGDQIGGPAWSLLARVAGRRRLAAGGPWARDIQRAGAWELRFSYRARCEPPAVGTACTRLCRPRSAPSRCGPGLRPCAPLEDECEAPLVCRAGCSPEHGFCEQPGECRCLEGWTGPLCTVPVSTSSCLSPRGPSSATTGCLVPGPGPCDGNPCANGGSCSETPRSFECTCPRGFYGLRCEVSGVTCADGPCFNGGLCVGGADPDSAYICHCPPGFQGSNCEKRVDRCSLQPCRNGGLCLDLGHALRCRCRAGFAGPRCEHDLDDCAGRACANGGTCVEGGGAHRCSCALGFGGRDCRERADPCAARPCAHGGRCYAHFSGLVCACAPGYMGARCEFPVHPDGASALPAAPPGLRPGDPQRYL	Kd [35]: 42 nM; Kd [4]: 41.9 nM; Kd [5]: 6.6 nM; Kd [6]: 5.6 nM; Kd [9]: 17.4 nM; Kd [23]: 6.9 nM; Kd [24]: 9.9 nM; Kd [26]: 4.7 nM; Kd [27]: 7 nM; Kd [29]: 8.4 nM; Kd [30]: 11.9 nM; Kd [31]: 1 nM; Kd [32]: 3.9 nM; Kd [33]: 1.3 nM; Kd [34]: 6.5 nM
–	–	–	–	–	–	–	–	–	–	–	–	–	–	–	–	–	–	–	–	human DLL3 (Example 6) (ligand, also called huDLL3) AGVFELQIHSFGPGPGPGAPRSPCSARLPCRLFFRVCLKPGLSEEAAESPCALGAALSARGPVYTEQPGAPAPDLPLPDGLLQVPFRDAWPGTFSFIIETWREELGDQIGGPAWSLLARVAGRRRLAAGGPWARDIQRAGAWELRFSYRARCEPPAVGTACTRLCRPRSAPSRCGPGLRPCAPLEDECEAPLVCRAGCSPEHGFCEQPGECRCLEGWTGPLCTVPVSTSSCLSPRGPSSATTGCLVPGPGPCDGNPCANGGSCSETPRSFECTCPRGFYGLRCEVSGVTCADGPCFNGGLCVGGADPDSAYICHCPPGFQGSNCEKRVDRCSLQPCRNGGLCLDLGHALRCRCRAGFAGPRCEHDLDDCAGRACANGGTCVEGGGAHRCSCALGFGGRDCRERADPCAARPCAHGGRCYAHFSGLVCACAPGYMGARCEFPVHPDGASALPAAPPGLRPGDPQRYL	Kd [36]: 2.2 nM
–	–	–	–	–	–	–	–	–	–	–	–	–	–	–	–	–	–	–	–	biotinylated human DLL3 protein expressed as a human IgG1 fusion protein (Fc fusion, not shown: a dimerising Fc or GST, biotinylated) AGVFELQIHSFGPGPGPGAPRSPCSARLPCRLFFRVCLKPGLSEEAAESPCALGAALSARGPVYTEQPGAPAPDLPLPDGLLQVPFRDAWPGTFSFIIETWREELGDQIGGPAWSLLARVAGRRRLAAGGPWARDIQRAGAWELRFSYRARCEPPAVGTACTRLCRPRSAPSRCGPGLRPCAPLEDECEAPLVCRAGCSPEHGFCEQPGECRCLEGWTGPLCTVPVSTSSCLSPRGPSSATTGCLVPGPGPCDGNPCANGGSCSETPRSFECTCPRGFYGLRCEVSGVTCADGPCFNGGLCVGGADPDSAYICHCPPGFQGSNCEKRVDRCSLQPCRNGGLCLDLGHALRCRCRAGFAGPRCEHDLDDCAGRACANGGTCVEGGGAHRCSCALGFGGRDCRERADPCAARPCAHGGRCYAHFSGLVCACAPGYMGARCEFPVHPDGASALPAAPPGLRPGDPQRYL	Kd [37]: 9 nM; Kd [38]: 8.9 nM; Kd [39]: 9.9 nM; Kd [40]: 7.7 nM; Kd [41]: 34 nM; Kd [42]: 0.3 nM
